US7981843
Each block holds one molecule with its values, some of them ahead of it.

Experiments:
[1] = biological target: PcrV of Pseudomonas aeruginosa strain PA103 (native, on the bacteria) (Pseudomonas aeruginosa); assay: cell-based or functional assay
[2] = biological target: GST-PcrV fusion protein (Pseudomonas aeruginosa) [GST: P08515]; assay: SPR, Biacore 3000, GST-PcrV amine-coupled to CM4 chip, Fab in solution
[3] = biological target: GST-PcrV fusion protein (Pseudomonas aeruginosa) [GST: P08515]; assay: dilution ELISA, purified Fab in twofold series in duplicate on plates coated with GST-PcrV, TMB A450 (upper chart)

Molecule: Mab 166 whole IgG (antibody)
IC50, inhibition of Pseudomonas-mediated (TTSS exotoxin-dependent) cytotoxicity to P3-X63-Ag8 cells, propidium iodide flow cytometry [1]: 93 nM

Kd [2]: 1.1 nM
koff [2]: 0.00026 s⁻¹
kon [2]: 249000 M⁻¹ s⁻¹
EC50 (read off the curve) [3]: 6 nM
B1: Murine Fab M166 (Fab, from another filing, V domains shown)
VH: QVQLKQSGPGLVQPSQSLSITCTVSGFSLTSYGVHWVRQSPGKGLEWLGVIWSGGDTDYNAAFISRLSISKDNSKSQLFFKMNSLRATDTAIYYCARNRGDIYYDFTYAMDYWGQGTSVTVSS
VL: DIQMTQSPASLSASVGETVTITCRASGNIQNYLAWYQQTQGKSPQLLVYSAKTLADGVPSRFSGSGSGTQYSLKINSLQPEDFGSYYCQHFWSTPYTFGGGTKLEIKR
